Measurements as given in patent publication US20190016815A1 (TRACON PHARMACEUTICALS, published 2019).
Residue numbers refer to the chain shown, from its start. Blank lines part the entries; values can stand above or below the binder they belong to.

Columns and labels:
[1] = target: T1, human CD105 (R&D Systems Cat. No. 1097-EN) (human, UniProt P17813 26-586); experiment: competition ELISA on captured human CD105; unlabelled TRC205 against biotinylated TRC205 (55 ng/ml)
T1 construct: Bought protein, captured on the plate by mouse anti-human CD105 (Southern Biotechnologies 9811-01); also called human endoglin
T1 sequence (looked up): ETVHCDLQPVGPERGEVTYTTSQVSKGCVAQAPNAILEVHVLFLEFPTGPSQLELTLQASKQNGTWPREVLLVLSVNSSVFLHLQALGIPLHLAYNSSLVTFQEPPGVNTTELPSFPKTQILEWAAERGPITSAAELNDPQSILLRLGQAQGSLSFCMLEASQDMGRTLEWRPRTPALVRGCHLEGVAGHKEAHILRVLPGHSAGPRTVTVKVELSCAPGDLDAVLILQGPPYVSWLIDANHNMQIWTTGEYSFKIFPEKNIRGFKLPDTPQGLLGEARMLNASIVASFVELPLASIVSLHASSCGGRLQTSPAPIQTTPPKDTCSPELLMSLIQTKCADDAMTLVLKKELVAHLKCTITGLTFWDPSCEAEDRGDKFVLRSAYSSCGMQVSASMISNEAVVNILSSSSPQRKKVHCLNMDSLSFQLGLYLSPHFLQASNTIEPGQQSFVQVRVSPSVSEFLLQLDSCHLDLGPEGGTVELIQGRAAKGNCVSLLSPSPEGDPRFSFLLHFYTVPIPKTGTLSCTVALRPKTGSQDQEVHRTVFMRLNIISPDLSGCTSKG
Procedure: (§1) After washing three times with PBST, a three-fold dilution series of either human BMP9 (R&D Systems Cat. No. 3209-BP-010) (413 nM to 0.56 nM), or unlabelled TRC205 antibody (40 nM to 0.05 nM) or a single concentration of an irrelevant antibody (66 nM) was mixed with a fixed concentration of biotinylated TRC205 antibody (55 ng/ml) and added to the plate. Following incubation for 1 hour at room temperature, the plate was washed three times with PBST and binding of the biotinylated TRC205 antibody was detected using streptavidin-HRP (Sigma Cat. No. 55512) and TMB substrate (Sigma Cat. No. T0440). OD450 nm values were measured on a Dynex MRX TCII plate reader.

[2] = target: T1, human CD105 (R&D Systems Cat. No. …); experiment: competition ELISA on human CD105 captured on the plate (100 ng/ml); competitor: biotinylated chimeric anti-CD105 at 6.25 ng/ml; streptavidin-HRP, TMB, OD450
Procedure: FIGS. 6A-6F. Anti-CD105 competition ELISA with humanized and humanized/deimmunized antibodies. […] Binding was detected via streptavidin-HRP and TMB substrate. Absorbance (OD) at 450 nm was measured on a plate reader and this was plotted against the test antibody concentration. FIG. 6A provides the results from the chimeric control compared to VK1VH1, VK1VH2, VK2VH1 and VK2VH2. FIG. 6B provides the results from the chimeric control compared to VK1VH1, VK2AVH1A, VK2SAVH1Q, VK2SAVH1R and VK2SAVH1S. FIG. 6C provides the results from the chimeric control compared to VK2AAVH1A2, VK2ASVH1A2, VK2ASVH1Q, VK2SSVH1A and VK2SSVH1Q. FIG. 6D provides the results from the chimeric control compared to VK2VH1, VK2AAVH1A, VK2AAVH1Q, VK2AAVH1R and VK2AAVH1S. FIG. 6E provides the results from the chimeric control compared to VK2VH1, VK2ASVH1A, VK2ASVH1R, VK2ASVH1S, and VK2SAVH1A2. FIG. 6F provides the results from the chimeric control compared to VK2VH1, VK2SSVH1Q, VK2SSVH1A2, VK2SSVH1R and VK2SSVH1S.
Antibodies were tested in a competition ELISA for binding to CD105 against biotinylated chimeric anti-CD105. Briefly, chimeric anti-CD105 was biotinylated using a micro-biotinylation kit (Sigma, Catalog No. BTAG-1KT) following the manufacturer's instructions. […] Binding of the biotinylated chimeric antibody was detected via streptavidin-HRP (Sigma, Catalog No. 55512) and TMB substrate (Sigma, Catalog No. T0440). OD450 nm values were measured on a Dynex MRX TCII plate reader. The results of the competition analysis are illustrated in FIG. 6.

[3] = target: T1, human CD105 (R&D Systems Cat. No. …); experiment: competition ELISA on captured human CD105; human BMP9 against biotinylated TRC205 (55 ng/ml)
Procedure: as §1

B1: TRC205 antibody (antibody, IgG4, V domains shown)
VH: EVQLVESGGGLVKPGGSLRLSCAASGFTFSDAWMDWVRQAPGKGLEWVGEARSKASNHATYYAESVKGRFTISRDDSKNTLYLQMNSLKTEDTAVYYCTRWRRFFDSWGQGTLVTVSS
VL: DIQMTQSPSSLSASVGDRATITCRASSSVSYMHWYQQKPGKAPKPWAYATSNLASGVPSRFSGSGSGTDYTLTISSLQPEDFATYYCQQWSSNPLTFGGGTKVEIK
notes: IgG4); Biotinylated with a Lightning-Link kit for the direct ELISA and as the labelled tracer; also called biotinylated TRC205; unlabelled TRC205
IC50 [1]: 0.26 mg/L

B4: VK2ASVH1R (antibody, V domains shown)
VH: B1 VH with A51I, K54R
VL: B1 VL with M4L, A47I, T50S
binding result [2]: binds

The next lines start with the values.

binding result [2]: binds
B2: VK2ASVH1A (antibody, V domains shown)
VH: B1 VH with G49A, A51I
VL: B1 VL with M4L, A47I, T50S

binding result [2]: binds
B3: VK2SSVH1R (antibody, V domains shown)
VH: B1 VH with A51I, K54R
VL: B1 VL with M4L, A19V, T22S, A47I, T50S

IC50 [3]: 0.35 mg/L
B5: human BMP9 (R&D Systems Cat. No. 3209-BP-010) (ligand, UniProt Q9UK05 320-429, looked up)
chain: SAGAGSHCQKTSLRVNFEDIGWDSWIIAPKEYEAYECKGGCFFPLADDVTPTKHAIVQTLVHLKFPTKVGKACCVPTKLSPISVLYKDDMGVPTLKYHYEGMSVAECGCR
notes: Bought protein
